How the values were obtained:
[1] = target: the molecule itself; assay: cryo-EM structure; 2.0-3.3 mg/ml protein plunge-frozen, Titan Krios 300 kV, K2; 2D class averages (IMAGIC) compared with 40mer reprojections, 3D reconstruction in cryoSPARC
[2] = target: Hsp26 FRET complex (5 µM LYI-labeled and 5 µM AIAS-labeled Hsp26 S5C, pre-formed at 40 °C) (S. cerevisiae) (UniProt P15992); assay: FRET or BRET; subunit exchange: unlabeled Hsp26 in 39-fold molar excess added to the pre-formed FRET complex, 40 °C, decrease of acceptor fluorescence at 520 nm for 1500 s, exponential fit, kexchange = 1/t1
[3] = target: the molecule itself; assay: CD thermal transition; far-UV CD at 218 nm, 12.5 µM protein in PBS, 20 to 90 °C at 1 K/min; the lower transition is taken as the disassembly of the oligomer
[4] = target: the molecule itself; assay: SEC; analytical SEC-HPLC, Superdex200 increase 10/300GL, PBS, 0.5 ml/min, RT, 20 µl of a 20 µM protein solution loaded
[5] = target: T1, authentic Hsp26 from yeast (S. cerevisiae), P15992; assay: cryo-EM structure; 2.0-3.3 mg/ml protein plunge-frozen, Titan Krios 300 kV, K2; 2D class averages (IMAGIC) compared with 40mer reprojections, 3D reconstruction in cryoSPARC; settings: remark: other sources report otherwise
T1 chain: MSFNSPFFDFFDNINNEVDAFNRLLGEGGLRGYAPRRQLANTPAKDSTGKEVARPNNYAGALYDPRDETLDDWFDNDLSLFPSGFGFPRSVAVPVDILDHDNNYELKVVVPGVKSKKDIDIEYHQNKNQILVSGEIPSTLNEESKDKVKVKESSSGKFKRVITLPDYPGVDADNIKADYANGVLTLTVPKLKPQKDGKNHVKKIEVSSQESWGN

[6] = target: the molecule itself; assay: cryo-EM structure; S207E dataset; asymmetric heterogeneous refinement (3D classification) in cryoSPARC into 13 classes; class C13
[7] = target: the molecule itself; assay: AUC; sedimentation velocity, 23 µM protein, 35,000 rpm (98,500 × g), 20 °C, PBS, absorbance at 280 nm, c(S) distribution in SEDFIT

Row | Binder | exchange constant [2] | dissociation temperature of the oligomer [3] | also measured
1 | Hsp26 wild-type (WT) protein, recombinant (natural protein, S. cerevisiae, Hsp26, small heat shock protein of S. cerevisiae; HSP26 cloned into pQE60 with NcoI and HindIII, which adds a glycine after the start methionine; Forms an ensemble of oligomers, predominantly a 40mer; also called Hsp26 WT; source: E. coli HB101, purified (Q-Sepharose, Superdex200, Resource Q)) MGSFNSPFFDFFDNINNEVDAFNRLLGEGGLRGYAPRRQLANTPAKDSTGKEVARPNNYAGALYDPRDETLDDWFDNDLSLFPSGFGFPRSVAVPVDILDHDNNYELKVVVPGVKSKKDIDIEYHQNKNQILVSGEIPSTLNEESKDKVKVKESSSGKFKRVITLPDYPGVDADNIKADYANGVLTLTVPKLKPQKDGKNHVKKIEVSSQESWGN | 0.0032 s⁻¹ | 42.1 °C | fraction of particles representing 40mer views [1]: 48.9%; stoichiometry N [1]: 40
2 | Hsp26 S47E/T48E (natural protein, S. cerevisiae, Hsp26 of S. cerevisiae, phospho-mimetic double mutant in pQE60::HSP26; source: E. coli HB101, purified (Q-Sepharose, Superdex200, Resource Q)) MGSFNSPFFDFFDNINNEVDAFNRLLGEGGLRGYAPRRQLANTPAKDEEGKEVARPNNYAGALYDPRDETLDDWFDNDLSLFPSGFGFPRSVAVPVDILDHDNNYELKVVVPGVKSKKDIDIEYHQNKNQILVSGEIPSTLNEESKDKVKVKESSSGKFKRVITLPDYPGVDADNIKADYANGVLTLTVPKLKPQKDGKNHVKKIEVSSQESWGN | 0.004 s⁻¹ | 36.8 °C | fraction of particles representing 40mer views [1]: 7.3%; stoichiometry N [1]: 40
3 | Hsp26 S90E (natural protein, S. cerevisiae, Hsp26 of S. cerevisiae, phospho-mimetic mutant in pQE60::HSP26; source: E. coli HB101, purified (Q-Sepharose, Superdex200, Resource Q)) MGSFNSPFFDFFDNINNEVDAFNRLLGEGGLRGYAPRRQLANTPAKDSTGKEVARPNNYAGALYDPRDETLDDWFDNDLSLFPSGFGFPREVAVPVDILDHDNNYELKVVVPGVKSKKDIDIEYHQNKNQILVSGEIPSTLNEESKDKVKVKESSSGKFKRVITLPDYPGVDADNIKADYANGVLTLTVPKLKPQKDGKNHVKKIEVSSQESWGN | 0.004 s⁻¹ | < 40 °C | –
4 | Hsp26 S144E (natural protein, S. cerevisiae, Hsp26 of S. cerevisiae, phospho-mimetic mutant in pQE60::HSP26; source: E. coli HB101, purified (Q-Sepharose, Superdex200, Resource Q)) MGSFNSPFFDFFDNINNEVDAFNRLLGEGGLRGYAPRRQLANTPAKDSTGKEVARPNNYAGALYDPRDETLDDWFDNDLSLFPSGFGFPRSVAVPVDILDHDNNYELKVVVPGVKSKKDIDIEYHQNKNQILVSGEIPSTLNEEEKDKVKVKESSSGKFKRVITLPDYPGVDADNIKADYANGVLTLTVPKLKPQKDGKNHVKKIEVSSQESWGN | 0.0032 s⁻¹ | 35.1 ± 0.1 °C | –
5 | Hsp26 S207E (natural protein, S. cerevisiae, Hsp26 of S. cerevisiae, phospho-mimetic mutant in pQE60::HSP26; source: E. coli HB101, purified (Q-Sepharose, Superdex200, Resource Q)) MGSFNSPFFDFFDNINNEVDAFNRLLGEGGLRGYAPRRQLANTPAKDSTGKEVARPNNYAGALYDPRDETLDDWFDNDLSLFPSGFGFPRSVAVPVDILDHDNNYELKVVVPGVKSKKDIDIEYHQNKNQILVSGEIPSTLNEESKDKVKVKESSSGKFKRVITLPDYPGVDADNIKADYANGVLTLTVPKLKPQKDGKNHVKKIEVESQESWGN | – | – | fraction of particles representing 40mer views [1]: 34.2%; stoichiometry N [1]: 40
6 | Hsp26 S208E (natural protein, S. cerevisiae, Hsp26 of S. cerevisiae, phospho-mimetic mutant in pQE60::HSP26; source: E. coli HB101, purified (Q-Sepharose, Superdex200, Resource Q)) MGSFNSPFFDFFDNINNEVDAFNRLLGEGGLRGYAPRRQLANTPAKDSTGKEVARPNNYAGALYDPRDETLDDWFDNDLSLFPSGFGFPRSVAVPVDILDHDNNYELKVVVPGVKSKKDIDIEYHQNKNQILVSGEIPSTLNEESKDKVKVKESSSGKFKRVITLPDYPGVDADNIKADYANGVLTLTVPKLKPQKDGKNHVKKIEVSEQESWGN | – | < 40 °C | –
7 | Hsp26 S208E/S211E (natural protein, S. cerevisiae, Hsp26 of S. cerevisiae, phospho-mimetic double mutant in pQE60::HSP26; also called CTR double mutant; source: E. coli HB101, purified (Q-Sepharose, Superdex200, Resource Q)) MGSFNSPFFDFFDNINNEVDAFNRLLGEGGLRGYAPRRQLANTPAKDSTGKEVARPNNYAGALYDPRDETLDDWFDNDLSLFPSGFGFPRSVAVPVDILDHDNNYELKVVVPGVKSKKDIDIEYHQNKNQILVSGEIPSTLNEESKDKVKVKESSSGKFKRVITLPDYPGVDADNIKADYANGVLTLTVPKLKPQKDGKNHVKKIEVSEQEEWGN | 0.0036 s⁻¹ | < 40 °C | –
8 | Hsp26 S211E (natural protein, S. cerevisiae, Hsp26 of S. cerevisiae, phospho-mimetic mutant in pQE60::HSP26; source: E. coli HB101, purified (Q-Sepharose, Superdex200, Resource Q)) MGSFNSPFFDFFDNINNEVDAFNRLLGEGGLRGYAPRRQLANTPAKDSTGKEVARPNNYAGALYDPRDETLDDWFDNDLSLFPSGFGFPRSVAVPVDILDHDNNYELKVVVPGVKSKKDIDIEYHQNKNQILVSGEIPSTLNEESKDKVKVKESSSGKFKRVITLPDYPGVDADNIKADYANGVLTLTVPKLKPQKDGKNHVKKIEVSSQEEWGN | – | – | binding result [4]: binds
9 | Hsp26 T163E (natural protein, S. cerevisiae, Hsp26 of S. cerevisiae, phospho-mimetic mutant in pQE60::HSP26; source: E. coli HB101, purified (Q-Sepharose, Superdex200, Resource Q)) MGSFNSPFFDFFDNINNEVDAFNRLLGEGGLRGYAPRRQLANTPAKDSTGKEVARPNNYAGALYDPRDETLDDWFDNDLSLFPSGFGFPRSVAVPVDILDHDNNYELKVVVPGVKSKKDIDIEYHQNKNQILVSGEIPSTLNEESKDKVKVKESSSGKFKRVIELPDYPGVDADNIKADYANGVLTLTVPKLKPQKDGKNHVKKIEVSSQESWGN | 0.0036 s⁻¹ | 34.6 ± 0.9 °C | –
10 | authentic Hsp26 from yeast, P15992 1-214 (natural protein) MSFNSPFFDFFDNINNEVDAFNRLLGEGGLRGYAPRRQLANTPAKDSTGKEVARPNNYAGALYDPRDETLDDWFDNDLSLFPSGFGFPRSVAVPVDILDHDNNYELKVVVPGVKSKKDIDIEYHQNKNQILVSGEIPSTLNEESKDKVKVKESSSGKFKRVITLPDYPGVDADNIKADYANGVLTLTVPKLKPQKDGKNHVKKIEVSSQESWGN | – | – | stoichiometry N [5]: 40
11 | Hsp26 S207E (natural protein, S. cerevisiae, UniProt P15992 1-214, looked up, an additional glycine stands after the start methionine; phospho-mimetic mutant of the C-terminal region; predominant species a 40mer, one 3D class a 42mer; source: E. coli HB101, purified (Q-Sepharose, Superdex200, Resource Q)) MGSFNSPFFDFFDNINNEVDAFNRLLGEGGLRGYAPRRQLANTPAKDSTGKEVARPNNYAGALYDPRDETLDDWFDNDLSLFPSGFGFPRSVAVPVDILDHDNNYELKVVVPGVKSKKDIDIEYHQNKNQILVSGEIPSTLNEESKDKVKVKESSSGKFKRVITLPDYPGVDADNIKADYANGVLTLTVPKLKPQKDGKNHVKKIEVESQESWGN | – | – | stoichiometry N [6]: 42
12 | Hsp26 T42E (natural protein, S. cerevisiae, Hsp26 of S. cerevisiae, phospho-mimetic mutant in pQE60::HSP26; source: E. coli HB101, purified (Q-Sepharose, Superdex200, Resource Q)) MGSFNSPFFDFFDNINNEVDAFNRLLGEGGLRGYAPRRQLANEPAKDSTGKEVARPNNYAGALYDPRDETLDDWFDNDLSLFPSGFGFPRSVAVPVDILDHDNNYELKVVVPGVKSKKDIDIEYHQNKNQILVSGEIPSTLNEESKDKVKVKESSSGKFKRVITLPDYPGVDADNIKADYANGVLTLTVPKLKPQKDGKNHVKKIEVSSQESWGN | – | < 40 °C | –
13 | Hsp26 T48E (natural protein, S. cerevisiae, Hsp26 of S. cerevisiae, phospho-mimetic mutant in pQE60::HSP26; source: E. coli HB101, purified (Q-Sepharose, Superdex200, Resource Q)) MGSFNSPFFDFFDNINNEVDAFNRLLGEGGLRGYAPRRQLANTPAKDSEGKEVARPNNYAGALYDPRDETLDDWFDNDLSLFPSGFGFPRSVAVPVDILDHDNNYELKVVVPGVKSKKDIDIEYHQNKNQILVSGEIPSTLNEESKDKVKVKESSSGKFKRVITLPDYPGVDADNIKADYANGVLTLTVPKLKPQKDGKNHVKKIEVSSQESWGN | – | < 40 °C | –
14 | Hsp26 S47E (natural protein, S. cerevisiae, Hsp26 of S. cerevisiae, phospho-mimetic mutant in pQE60::HSP26; source: E. coli HB101, purified (Q-Sepharose, Superdex200, Resource Q)) MGSFNSPFFDFFDNINNEVDAFNRLLGEGGLRGYAPRRQLANTPAKDETGKEVARPNNYAGALYDPRDETLDDWFDNDLSLFPSGFGFPRSVAVPVDILDHDNNYELKVVVPGVKSKKDIDIEYHQNKNQILVSGEIPSTLNEESKDKVKVKESSSGKFKRVITLPDYPGVDADNIKADYANGVLTLTVPKLKPQKDGKNHVKKIEVSSQESWGN | – | – | binding result [7]: binds
